Measurements from patent publication US20250154240A1, “ANTI-HUMAN CXCL1 ANTIBODY” (CHIOME BIOSCIENCE INC., priority 2022, published 2025).

B1: 028-8-12: human antibody against CXCL1 from the human ADLib technique; VH SEQ ID NO: 25, VL SEQ ID NO: 29 (antibody, listed as Gallus gallus, V domains shown)
VH: EVQLLESGGGLVQPGGSLRLSCAASGFTFSELSMSWVRQAPGKGLEWVSAISGSGGSTYYADSVKGRFTISRDNSKNTLYLQMNSLRAEDTAVYYCAREGGRLEPYYYYYAMDVWGQGTPVTVSS
VL: DIQMTQSPSSLSASVGDRVTITCRASQSISDNLHWYQQKPGKAPKLLIYDASNLESGVPSRFSGSGSGTDFTLTINSLQPEDFATYYCQQYYSTPLTFGQGTKLEIK
B2: 4A-2F7: mouse monoclonal anti-HuCXCL1 antibody clone; VH SEQ ID NO: 9, VL SEQ ID NO: 13 (antibody, listed as Mus musculus, V domains shown)
VH: QVTLKESGPGILKPSQTLSLTCSFSGFSLSTSGMGVDWIRQPSGKGLEWLAHIWWDDDKYYNPSLKSQLTISKDTSRNQVFLKITSVDTADTATYYCARSYGYDMDYYAMDYWGQGTSVTVSS
VL: DIQMTQSPSSLSASLGERVSLTCRASQEISGYLSWLQQKPDGTIKRLIYAASTLDSGVPKRFSGSRSGSDYSLTISSLESEDFADYYCLQYASYPPWTFGGGTKLEIK
B3: 5A-5E11: mouse monoclonal anti-HuCXCL1 antibody clone; VH SEQ ID NO: 17, VL SEQ ID NO: 21 (antibody, listed as Mus musculus, V domains shown)
VH: QVQLQQSGAELVRPGSSVKISCKASGYAFSDYWMNWVKQRPGQGLEWIGQIYPGDGDTNYNGKFKGKGTLTADKSSSTAYMQLNSLTSEDSAVYFCARERDYDVAMDYWGQGTSVTVSS
VL: DIQMTQSPSSLSASLGGKVTITCKASQDINKYIAWFQHKPGKGPRLVIHYTSILQPGIPSRFSGVGSGRDYSFSIRNLEPEDIATYYCLQYDNLPWTFGGGTKLEIK
B4: 1A-7H10: mouse monoclonal anti-HuCXCL1 antibody clone; VH SEQ ID NO: 1, VL SEQ ID NO: 5 (antibody, listed as Mus musculus, V domains shown)
VH: QVQLKESGPVLVAPSQSLSITCSVSGFSSTTYGVHWVRQPPGQGLEWLGVIWAGGSTNYNSALMSRLSISKDNSKSQVFLKMNSLQTDDTAMYYCATQYHYPFAYWGQGTLVTVSA
VL: NIVMTQSPKSMSMSVGERVTLSCKASENVGIYVSWYQQKPEQSPKLMIYGASNRNTGVPDRFTGSGSATDFTLTISSVQAEDLADYYCGQSYSYPLTFGAGTKLELK
B5: Hu5A-5E11: humanized antibody VH1/VL1; VH SEQ ID NO: 76, VL SEQ ID NO: 78 (antibody, V domains shown)
VH: QVQLVQSGAEVKKPGSSVKVSCKASGYAFSDYWMNWVRQAPGQGLEWIGQIYPGSGDTNYNAKFKGKGTITADKSTSTAYMELSSLRSEDTAVYYCARERDYDVAMDYWGQGTTVTVSS
VL: DIQMTQSPSSLSASVGDRVTITCKASQDINKYIAWFQQKPGKAPKLVIHYTSILQPGVPSRFSGSGSGTDYTFTISSLQPEDIATYYCLQYDNLPWTFGGGTKVEIK

Assays:
[1] = tested on: migration of HuCXCR2-expressing cells toward HuCXCL1; test: Migration assay (Boyden chamber chemotaxis) of HuCXCR2-expressing cells toward HuCXCL1; type: cell-based, human; details: HuCXCL1 200 ng per ml in lower chamber
Description: The 80 clones with neutralizing activity against HuCXCL1 were evaluated for their inhibitory activity against the migration of HuCXCR2-expressing cells toward HuCXCL1.
Cell chemotaxis was measured by Boyden chamber assay, and QCM Chemoraxis Cell Migration Assay (Sigma-Aldrich Corporation) was purchased and used as an assay kit. AequoScrenn/CXCR2 cells were used as HuCXCR2-expressing cells. An isotype control antibody and a goat anti-HuCXCL1 polyclonal antibody (hereinafter referred to as AF275) were purchased from R&D Systems and used.
The HuCXCR2-expressing cells were cultured overnight at 37° C. in a serum-free culture medium, and then suspended in the assay buffer and adjusted to 2×10^6 cells per ml. The upper chamber of a Boyden chamber was filled with the HuCXCR2-expressing cell suspension, while the lower chamber was filled with the assay buffer alone or a solution containing HuCXCL1 in an amount of 200 ng per ml with or without a purified antibody, followed by incubation overnight at 37° C.
After incubation, the upper chamber was washed with PBS, placed into a new lower chamber containing a Cell Detachment Solution (Sigma-Aldrich Corporation), and then allowed to stand at 37° C. for 30 minutes to detach the migrated cells adhered to the bottom of the membrane in the upper chamber.
The migrated cell suspension was supplemented with 4× Lysis Buffer (Sigma-Aldrich Corporation) in a volume of 75 μL per well and allowed to stand at room temperature for 20 minutes, followed by measurement of fluorescence at an excitation wavelength of 480 nm and a fluorescence wavelength of 520 nm. The above about 80 clones were screened and evaluated for their inhibitory activity against the migration of CXCR2 cells.

CyCXCL1 = CyCXCL1 binding activity ELISA; parameters: species or system cynomolgus monkey; details: absorbance to CyCXCL1 relative to absorbance to HuCXCL1
Description: Binding activity to cynomolgus monkey CXCL1 (CyCXCL1) was evaluated.
The same procedure as shown in [1-1] above was repeated to prepare a CyCXCL1 protein (antigen), except that the amino acid sequence of a HuCXCL1 protein was replaced with the amino acid sequence of a CyCXCL1 protein (Uniprot registration number: QUEAC3; SEQ ID NO: 82).
The evaluation of binding activity to CyCXCL1 was accomplished by ELISA assay. Absorbance was calculated in the same manner as shown in [2-1] above to evaluate antigen-binding activity, except that the protein immobilized on the plates was changed from a HuCXCL1 protein to a CyCXCL1 protein. An antibody whose absorbance to CyCXCL1 was 80% or more of its absorbance to HuCXCL1 was determined to have cross-reactivity and indicated with “o” while an antibody whose absorbance to CyCXCL1 was less than 80% of its absorbance to HuCXCL1 was indicated with “x” in Table A above.

[2] = tested on: OCUM-12 gastric cancer cell line; test: Antitumor activity test, model with OCUM-12 orthotopic transplantation (prevention model); type: in vivo, mouse; details: for Antitumor activity (tumor growth, tumor size): 20 mg/kg intraperitoneally twice a week from the day following transplantation
Description: A model with OCUM-12 orthotopic transplantation was prepared to evaluate the above 4 types of candidate antibodies for their in vivo CXCR2 migration inhibitory activity and antitumor activity in a xenograft model with OCUM-12 orthotopic transplantation.
For use as mice, female nude mice (BALB/cAJcl-nu/nu) at 5 to 6 weeks of age were purchased from CLEA Japan, Inc., Japan. For use as human cancer cells, a gastric cancer cell line, OCUM-12, was provided by University Public Corporation Osaka, Japan.
OCUM-12 cells were cultured in D-MED medium (FUJIFILM Wako Pure Chemical Corporation, Japan) supplemented with 10% fetal bovine serum (FBS; Sigma-Aldrich Corporation) and 1/100 volumes of a penicillin-streptomycin mixture (Nacalai Tesque, Inc., Japan). The cells to be transplanted were detached with 0.25% trypsin/0.02% EDTA (Thermo Fisher Scientific) and washed with PBS, and 4× 10^5 cells per mouse were transplanted into the gastric wall of each mouse.
On the day following the above transplantation, the mice were randomized into groups (8 or 6 mice per group) and intraperitoneally administered with PBS as a control and with 4 types of candidate antibodies (1A-7H10, 4A-2F7, 5A-5E11 and 028-8-12) and 3 types of non-candidate antibodies (1A-3C6, 1A-2H3 and 4A-5B11) at a dose of 20 mg/kg. In addition, mouse IgG1 as a control was intraperitoneally administered at a dose of 20 mg/kg, and 3 types of antibodies (5A-5E11, 1A-4H10 and 4A-7G7) among the candidate antibodies were intraperitoneally administered at a dose of 20 mg/kg. The administration of these antibodies was then continued with a frequency of twice a week until the completion of the test. After 3 weeks had passed from the transplantation, the mice were sacrificed, and the short- and long-axis diameters of tumors formed in their gastric walls were each measured with a caliper. The tumor size was calculated according to the following: 1/2 short-axis diameter (mm)×1/2 long-axis diameter (mm)×3.14.
Navarixin is among small molecular compounds that act on CXCR2 and inhibit CXCL1-CXCR2 signaling. […] Then, using a model with OCUM-12 orthotopic transplantation, the migration inhibition of CXCR2-expressing cells and antitumor activity were evaluated in vivo for Navarixin. As a vehicle, ultrapure water containing 20% 2-hydroxypropyl-β-cyclodextrin (FUJIFILM Wako Pure Chemical Corporation, Japan) was used. Navarixin (MedChemExpress) was dissolved in ultrapure water containing 20% 2-hydroxypropyl-β-cyclodextrin, and orally administered at a dose of 100 mg/kg/day in a schedule of once a day for 5 consecutive days, followed by a 2-day withdrawal.
The humanized antibodies were evaluated for their in vivo antitumor activity and CXCR2 migration inhibitory activity in a xenograft model with OCUM-12 orthotopic transplantation. Procedures for the evaluation are shown below.
For use as mice, female nude mice (BALB/cAJcl-nu/nu) at 5 to 6 weeks of age were purchased from CLEA Japan, Inc., Japan. For use as human cancer cells, gastric cancer cell line, OCUM-12, was provided by Osaka Metropolitan University, Japan.
OCUM-12 cells were cultured in D-MED medium (FUJIFILM Wako Pure Chemical Corporation, Japan) supplemented with 10% fetal bovine serum (hereinafter abbreviated as FBS; Sigma-Aldrich Corporation) and 1/100 volumes of a penicillin-streptomycin mixture (Nacalai Tesque, Inc., Japan). The cells to be transplanted were detached with 0.25% trypsin/0.02% EDTA (Thermo Fisher Scientific) and washed with PBS, and 4×10^5 cells per mouse were transplanted into the gastric wall of each mouse. On the day following the transplantation, the mice were randomized into groups (8 mice per group) and intraperitoneally administered with test antibodies at a dose of 400 μg/head. PBS was intraperitoneally administered in a volume of 200 μL with a frequency of twice a week for 3 weeks, starting from the day following the transplantation. […]

Sequence of CyCXCL1 (as listed by the source): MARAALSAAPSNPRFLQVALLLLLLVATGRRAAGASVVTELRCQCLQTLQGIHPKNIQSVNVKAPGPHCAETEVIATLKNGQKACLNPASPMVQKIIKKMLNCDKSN

Molecule | CXCR2-expressing cell migration inhibitory activity Chemotaxis assay [1] | Binding activity to CyCXCL1 ELISA (CyCXCL1) | Antitumor activity (tumor growth, tumor size) ([2]; 3 weeks, compared to PBS) | Antitumor activity (tumor area) ([2]; 400 μg/head intraperitoneally twice a week, 3 weeks, compared to hIgG1 antibody) | Dose significantly suppressing the tumor area ([2]; prevention model, compared to PBS)
B1 | ∘ | ∘ | significantly suppress tumor growth | – | –
B2 | ∘ | ∘ | significantly suppress tumor growth | – | –
B3 | ∘ | ∘ | significantly suppress tumor growth | – | –
B4 | ∘ | ∘ | significantly suppress tumor growth | – | –
B5 | – | – | – | significantly suppress an increase in the tumor area | ≥ 60 μg/head
